Experimental findings from patent publication US20140220004A1 are described below.

This assay concerns the target human transient receptor potential cation channel, subfamily A, member 1 (hTRPA1) (human) (UniProt O75762). As to the kind of experiment: cell-based or functional assay.
Chain of UniProt O75762 (O75762 whole entry): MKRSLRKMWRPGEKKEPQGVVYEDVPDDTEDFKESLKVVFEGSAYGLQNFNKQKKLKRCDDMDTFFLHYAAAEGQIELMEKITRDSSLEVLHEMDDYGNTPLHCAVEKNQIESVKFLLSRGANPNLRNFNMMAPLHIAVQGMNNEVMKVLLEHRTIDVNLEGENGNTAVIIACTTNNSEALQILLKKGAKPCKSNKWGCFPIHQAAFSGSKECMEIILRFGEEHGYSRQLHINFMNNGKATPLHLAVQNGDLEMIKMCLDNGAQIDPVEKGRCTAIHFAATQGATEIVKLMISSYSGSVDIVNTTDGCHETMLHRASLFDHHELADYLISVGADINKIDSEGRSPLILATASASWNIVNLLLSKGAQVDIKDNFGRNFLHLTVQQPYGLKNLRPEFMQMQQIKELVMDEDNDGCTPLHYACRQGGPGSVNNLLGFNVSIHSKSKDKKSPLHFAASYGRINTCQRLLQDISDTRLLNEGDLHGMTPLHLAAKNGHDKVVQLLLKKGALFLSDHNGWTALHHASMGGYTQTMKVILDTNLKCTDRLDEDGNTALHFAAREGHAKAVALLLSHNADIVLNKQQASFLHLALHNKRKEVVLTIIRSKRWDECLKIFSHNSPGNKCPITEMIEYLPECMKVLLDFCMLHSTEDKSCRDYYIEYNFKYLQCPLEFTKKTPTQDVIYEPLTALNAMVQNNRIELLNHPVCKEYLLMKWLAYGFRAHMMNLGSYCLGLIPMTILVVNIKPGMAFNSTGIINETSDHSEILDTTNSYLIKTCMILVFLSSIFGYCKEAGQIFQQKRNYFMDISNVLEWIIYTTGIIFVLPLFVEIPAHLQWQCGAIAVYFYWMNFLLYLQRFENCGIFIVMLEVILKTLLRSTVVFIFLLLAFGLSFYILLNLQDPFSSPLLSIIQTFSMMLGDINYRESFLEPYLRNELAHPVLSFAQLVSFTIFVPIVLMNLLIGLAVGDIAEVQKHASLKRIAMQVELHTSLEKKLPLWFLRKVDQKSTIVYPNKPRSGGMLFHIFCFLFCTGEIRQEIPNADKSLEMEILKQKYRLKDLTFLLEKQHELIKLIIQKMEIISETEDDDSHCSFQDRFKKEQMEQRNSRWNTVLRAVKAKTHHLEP

As for “rabbit metallothionein 2 A isoform containing 7 zinc atoms (rabbit Zn7-MT2A) (Bestenbalt LLC, Estonia) (from UniProt P18055 1-62) (ligand)”, the calcium flux in HEK cells transfected to express human TRPA1 (EC50) is 200 nM.
